What was measured:
[1] = tested on: GFP–talin1–cBAK; test: Mitochondrial targeting system (MTS): recruitment of mCherry–KANK1 by GFP–talin1–cBAK; type: cell-based; conditions: NIH3T3 fibroblasts and HEK293T cells; fluorescence microscopy colocalization
From the text: To examine the effect of these KANK1 mutations on talin interactions in cells, we next used a mitochondrial targeting system (MTS) which we previously used to screen for defined protein–protein interactions. In this assay, one protein is fused to a small peptide sequence from the pro-apoptotic protein BAK (cBAK) which leads to its insertion into the outer membrane of mitochondria. Proteins that interact with the cBAK-tagged protein will get recruited to mitochondria, and this recruitment can be verified either by visualizing colocalization using fluorescence microscopy (figure 4a) or by purification of mitochondria followed by detection of co-precipitates using biochemistry (figure 4b,c). […] To confirm that the interaction was meditated by the R7 domain, we performed the colocalization assays with truncated talin constructs.
(§1) NIH3T3 mouse fibroblasts and HEK293T human epithelial cells were obtained from the American Type Culture Collection (ATCC). The vinculin null and WT mouse embryonic fibroblasts (MEFs) originate from the Eileen Adamson laboratory. All cells were maintained in Dulbecco's Modified Eagle Medium (DMEM; Sigma) supplemented with 10% fetal bovine serum (FBS, Gibco), 1% L-glutamine (Sigma) and 1% non-essential amino acids (Sigma). Talin1&2 null cells were cultured in DMEM F-12 (Gibco) supplemented with 10% FBS, 1% L-glutamine, 1% non-essential amino acids and […] HEPES (Sigma). All cells were cultured at 37̊C supplied with 5% CO2 and 95% humidity. Transient transfections were performed using Lipofectamine LTX with Plus Reagent (Invitrogen) to NIH3T3 cells, Lipofectamine 2000 (Invitrogen) to talin null cells, and jetPRIME reagent (Polyplus) to MEFs and HEK293T cells, as per the manufacturer's instructions.
(§2) For the construction of mCherry-KANK1, human FL-KANK1 (generous donation from the Bershadsky laboratory) cDNA was tagged in the C-terminal site with pmCherry (Clontech) by restriction digestion. Point mutations (L41E, L43E, F45E and V49E) were introduced in mCherry-KANK1 by site-directed mutagenesis (NEB) using the following oligonucleotides: […]ga[…] and […] for L41E; […]ga[…] and […] for L43E; […]gaa[…] and […] for F45E; […]a[…] and […] for V49E. Generation of GFP–talin1–cBAK and GFP–cBAK was as previously described. G1404L was introduced on GFP–talin1–cBAK by the method above using […]ctt[…] and […]. To generate GFP–talin1 R7DD–cBAK and GFP–talin1 R9DD-cBAK constructs, R7-DD (3555 bp) and R9-DD (2661 bp) were amplified from talin-1 (Mus musculus). Restriction digestion with XhoI and HindIII FastDigest enzymes (Thermo Scientific) was used to linearize GFP–cBAK. DNA assembly was performed to join R7-DD and R9-DD to linearized the GFP–cBAK vector using the NEBuilder HiFi DNA assembly kit (NEB).
(§3) Images of fixed samples in PBS were acquired at room temperature using an Olympus IX83 inverted microscope equipped with a 60×/1.42 PlanApo N oil objective and a QImaging Retiga R6 CCD camera, controlled by Metamorph software. Samples were illuminated using LEDs (UV/Cyan/Green-Yellow/Red, Lumencor) for fluorescence excitation; a Sedat filter set (DAPI/FITC/TRITC/Cy5, Chroma, 89000) was used.

[2] = tested on: focal adhesions of NIH3T3 fibroblasts; test: KANK1 localization to focal adhesions (co-expression with GFP–paxillin); type: cell-based, mouse; conditions: NIH3T3 fibroblasts co-expressing GFP–paxillin
Description: as §1, §2, §3

Molecule	recruitment of mCherry–KANK1 to mitochondria by GFP–talin1–cBAK [1]	localization of mCherry–KANK1 to FAs / FA belt [2]
KANK1 WT: human FL-KANK1 tagged with pmCherry (protein, UniProt Q14678 1-1352, looked up, full-length mCherry fusion, human FL-KANK1 tagged with pmCherry) MAHTTKVNGSASGKAGDILSGDQDKEQKDPYFVETPYGYQLDLDFLKYVDDIQKGNTIKRLNIQKRRKPSVPCPEPRTTSGQQGIWTSTESLSSSNSDDNKQCPNFLIARSQVTSTPISKPPPPLETSLPFLTIPENRQLPPPSPQLPKHNLHVTKTLMETRRRLEQERATMQMTPGEFRRPRLASFGGMGTTSSLPSFVGSGNHNPAKHQLQNGYQGNGDYGSYAPAAPTTSSMGSSIRHSPLSSGISTPVTNVSPMHLQHIREQMAIALKRLKELEEQVRTIPVLQVKISVLQEEKRQLVSQLKNQRAASQINVCGVRKRSYSAGNASQLEQLSRARRSGGELYIDYEEEEMETVEQSTQRIKEFRQLTADMQALEQKIQDSSCEASSELRENGECRSVAVGAEENMNDIVVYHRGSRSCKDAAVGTLVEMRNCGVSVTEAMLGVMTEADKEIELQQQTIESLKEKIYRLEVQLRETTHDREMTKLKQELQAAGSRKKVDKATMAQPLVFSKVVEAVVQTRDQMVGSHMDLVDTCVGTSVETNSVGISCQPECKNKVVGPELPMNWWIVKERVEMHDRCAGRSVEMCDKSVSVEVSVCETGSNTEESVNDLTLLKTNLNLKEVRSIGCGDCSVDVTVCSPKECASRGVNTEAVSQVEAAVMAVPRTADQDTSTDLEQVHQFTNTETATLIESCTNTCLSTLDKQTSTQTVETRTVAVGEGRVKDINSSTKTRSIGVGTLLSGHSGFDRPSAVKTKESGVGQININDNYLVGLKMRTIACGPPQLTVGLTASRRSVGVGDDPVGESLENPQPQAPLGMMTGLDHYIERIQKLLAEQQTLLAENYSELAEAFGEPHSQMGSLNSQLISTLSSINSVMKSASTEELRNPDFQKTSLGKITGNYLGYTCKCGGLQSGSPLSSQTSQPEQEVGTSEGKPISSLDAFPTQEGTLSPVNLTDDQIAAGLYACTNNESTLKSIMKKKDGNKDSNGAKKNLQFVGINGGYETTSSDDSSSDESSSSESDDECDVIEYPLEEEEEEEDEDTRGMAEGHHAVNIEGLKSARVEDEMQVQECEPEKVEIRERYELSEKMLSACNLLKNTINDPKALTSKDMRFCLNTLQHEWFRVSSQKSAIPAMVGDYIAAFEAISPDVLRYVINLADGNGNTALHYSVSHSNFEIVKLLLDADVCNVDHQNKAGYTPIMLAALAAVEAEKDMRIVEELFGCGDVNAKASQAGQTALMLAVSHGRIDMVKGLLACGADVNIQDDEGSTALMCASEHGHVEIVKLLLAQPGCNGHLEDNDGSTALSIALEAGHKDIAVLLYAHVNFAKAQSPGTPRLGRKTSPGPTHRGSFD	readily recruits	readily localized to FAs, and predominantly to the typical ‘belt-like’ structure
KANK1 V49E: mCherry-KANK1 with point mutation V49E (protein, left off: mCherry, C-terminal, kept) MAHTTKVNGSASGKAGDILSGDQDKEQKDPYFVETPYGYQLDLDFLKYEDDIQKGNTIKRLNIQKRRKPSVPCPEPRTTSGQQGIWTSTESLSSSNSDDNKQCPNFLIARSQVTSTPISKPPPPLETSLPFLTIPENRQLPPPSPQLPKHNLHVTKTLMETRRRLEQERATMQMTPGEFRRPRLASFGGMGTTSSLPSFVGSGNHNPAKHQLQNGYQGNGDYGSYAPAAPTTSSMGSSIRHSPLSSGISTPVTNVSPMHLQHIREQMAIALKRLKELEEQVRTIPVLQVKISVLQEEKRQLVSQLKNQRAASQINVCGVRKRSYSAGNASQLEQLSRARRSGGELYIDYEEEEMETVEQSTQRIKEFRQLTADMQALEQKIQDSSCEASSELRENGECRSVAVGAEENMNDIVVYHRGSRSCKDAAVGTLVEMRNCGVSVTEAMLGVMTEADKEIELQQQTIESLKEKIYRLEVQLRETTHDREMTKLKQELQAAGSRKKVDKATMAQPLVFSKVVEAVVQTRDQMVGSHMDLVDTCVGTSVETNSVGISCQPECKNKVVGPELPMNWWIVKERVEMHDRCAGRSVEMCDKSVSVEVSVCETGSNTEESVNDLTLLKTNLNLKEVRSIGCGDCSVDVTVCSPKECASRGVNTEAVSQVEAAVMAVPRTADQDTSTDLEQVHQFTNTETATLIESCTNTCLSTLDKQTSTQTVETRTVAVGEGRVKDINSSTKTRSIGVGTLLSGHSGFDRPSAVKTKESGVGQININDNYLVGLKMRTIACGPPQLTVGLTASRRSVGVGDDPVGESLENPQPQAPLGMMTGLDHYIERIQKLLAEQQTLLAENYSELAEAFGEPHSQMGSLNSQLISTLSSINSVMKSASTEELRNPDFQKTSLGKITGNYLGYTCKCGGLQSGSPLSSQTSQPEQEVGTSEGKPISSLDAFPTQEGTLSPVNLTDDQIAAGLYACTNNESTLKSIMKKKDGNKDSNGAKKNLQFVGINGGYETTSSDDSSSDESSSSESDDECDVIEYPLEEEEEEEDEDTRGMAEGHHAVNIEGLKSARVEDEMQVQECEPEKVEIRERYELSEKMLSACNLLKNTINDPKALTSKDMRFCLNTLQHEWFRVSSQKSAIPAMVGDYIAAFEAISPDVLRYVINLADGNGNTALHYSVSHSNFEIVKLLLDADVCNVDHQNKAGYTPIMLAALAAVEAEKDMRIVEELFGCGDVNAKASQAGQTALMLAVSHGRIDMVKGLLACGADVNIQDDEGSTALMCASEHGHVEIVKLLLAQPGCNGHLEDNDGSTALSIALEAGHKDIAVLLYAHVNFAKAQSPGTPRLGRKTSPGPTHRGSFD	abolishes GFP–talin–cBAK mediated recruitment	abolished localization to FAs and the FA belt

— publication PMC10281804, “The structural basis of the talin–KANK1 interaction that coordinates the actin and microtubule cytoskeletons at focal adhesions” (Open Biology, 2023)
